B1: trypsin variant SEQ ID NO: 52 (protein)
chain: IVGGYTCAANSIPYQVSLNSGSHRCGGSLINSQWVVSAAHCYKLRIQVRLGEHNIDVLEGNEQFINAAKIITHPNFNGNTLDNDIMLIKLSSPATLNSRVATVSLPRSCAAAGTECLISGWGNTKSSGSSYPSLLQCLKAPVLSDSSCKSSYPGQITGNMICVGFLEGGKDACQGDSGGPVVCNGQLQGIVSSGYGCAQKNKPGVYTKVCNYVNWIQQTIAAN
B2: trypsin variant SEQ ID NO: 7 (protein)
chain: IVGGYTCAANSIPYQVSLNSGSHRCGGSLINSQWVVSAAHCYKSRIQVRLGEHNIDVLEGNEQFINAAKIITHPNFNGNTLDNDIMLIKLSSPATLNSWVATVSLPRSCAAAGTECLISGWGNTKSSGSSYPSLLQCLKAPVLSDSSCKSSYPGQITGNMICVGFLEGGKDACQGDSGGPVVCNGQLQGIVSSGYGCAQKNKPGVYTKVCNYVNWIQQTIAAN
B3: trypsin variant SEQ ID NO: 60 (protein)
chain: IVGGYTCAANSIPYQVSLNSGSHRCGGSLINSQWVVSAAHCYKSRIQVRLGEHNIDVLEGNEQFINAAKIITHPNFNGNTLDNDIMLIKLSSPATLNSRVATVSLPSSCAAAGTECLISGWGNTKSSGSSYPSLLQCLKAPVLSDSSCKSSYPGQITGNMICVGFLEGGKDACQGDSGGPVVCNGQLQGIVSSGYGCAQKNKPGVYTKVCNYVNWIQQTIAAN
B4: trypsin variant SEQ ID NO: 70 (protein)
chain: IVGGYTCAANSIPYQVSLNSGSHRCGGSLINSQWVVSAAHCYKSRIQVRLGEHNIDVLEGNEQFINAAKIITHPNFNGNTLDNDIMLIKLSSPATLNSRVATVSLPRSCAAAGTECLISGWGNTKSSGSSYPSLLQCLKAPVLSDSSCKSSYPGQITGNMICVGFLEGGKDACQGDSGGPVVCNGQLQGIVSYGYGCAQKNKPGVYTKVCNYVNWIQQTIAAN
B5: trypsin variant SEQ ID NO: 8 (protein)
chain: IVGGYTCAANSIPYQVSLNSGSHRCGGSLINSQWVVSAAHCYKSRIQVRLGEHNIDVLEGNEQFINAAKIITHPNFNGNTLDNDIMLIKLSSPATLNSGVATVSLPRSCAAAGTECLISGWGNTKSSGSSYPSLLQCLKAPVLSDSSCKSSYPGQITGNMICVGFLEGGKDACQGDSGGPVVCNGQLQGIVSSGYGCAQKNKPGVYTKVCNYVNWIQQTIAAN
B6: trypsin variant SEQ ID NO: 71 (protein)
chain: IVGGYTCAANSIPYQVSLNSGSHRCGGSLINSQWVVSAAHCYKSRIQVRLGEHNIDVLEGNEQFINAAKIITHPNFNGNTLDNDIMLIKLSSPATLNSRVATVSLPRSCAAAGTECLISGWGNTKSSGSSYPSLLQCLKAPVLSDSSCKSSYPGQITGNMICVGFLEGGKDACQGDSGGPVVCNGQLQGIVSTGYGCAQKNKPGVYTKVCNYVNWIQQTIAAN
B7: trypsin variant SEQ ID NO: 59 (protein)
chain: IVGGYTCAANSIPYQVSLNSGSHRCGGSLINSQWVVSAAHCYKSRIQVRLGEHNIDVLEGNEQFINAAKIITHPNFNGNTLDNDIMLIKLSSPATLNSRVATVSLPGSCAAAGTECLISGWGNTKSSGSSYPSLLQCLKAPVLSDSSCKSSYPGQITGNMICVGFLEGGKDACQGDSGGPVVCNGQLQGIVSSGYGCAQKNKPGVYTKVCNYVNWIQQTIAAN
B8: trypsin variant SEQ ID NO: 72 (protein)
chain: IVGGYTCAANSIPYQVSLNSGSHRCGGSLINSQWVVSAAHCYKSRIQVRLGEHNIDVLEGNEQFINAAKIITHPNFNSNTLDNDIMLIKLSSPATLNSRVATVSLPRSCAAAGTECLISGWGNTKSSGSSYPSLLQCLKAPVLSDSSCKSSYPGQITGNMICVGFLEGGKDACQGDSGGPVVCNGQLQGIVSSGYGCAQKNKPGVYTKVCNYVNWIQQTIAAN
B9: trypsin variant SEQ ID NO: 64 (protein)
chain: IVGGYTCAANSIPYQVSLNSGSHRCGGSLINSQWVVSAAHCYKSRIQVRLGEHNIDVLEGNEQFINAAKIITHPNFNGNTLDNDIMLIKLSSPATLNSRVATVSLPRSCAAAGTECLISGWGNTKSSGSSWPSLLQCLKAPVLSDSSCKSSYPGQITGNMICVGFLEGGKDACQGDSGGPVVCNGQLQGIVSSGYGCAQKNKPGVYTKVCNYVNWIQQTIAAN
B10: trypsin variant SEQ ID NO: 67 (protein)
chain: IVGGYTCAANSIPYQVSLNSGSHRCGGSLINSQWVVSAAHCYKSRIQVRLGEHNIDVLEGNEQFINAAKIITHPNFNGNTLDNDIMLIKLSSPATLNSRVATVSLPRSCAAAGTECLISGWGNTKSSGSSQPSLLQCLKAPVLSDSSCKSSYPGQITGNMICVGFLEGGKDACQGDSGGPVVCNGQLQGIVSSGYGCAQKNKPGVYTKVCNYVNWIQQTIAAN
B11: trypsin variant SEQ ID NO: 58 (protein)
chain: IVGGYTCAANSIPYQVSLNSGSHRCGGSLINSQWVVSAAHCYKSRIQVRLGEHNIDVLEGNEQFINAAKIITHPNFNGNTLDNDIMLIKLSSPATLNSRVATVSLPPSCAAAGTECLISGWGNTKSSGSSYPSLLQCLKAPVLSDSSCKSSYPGQITGNMICVGFLEGGKDACQGDSGGPVVCNGQLQGIVSSGYGCAQKNKPGVYTKVCNYVNWIQQTIAAN
B12: trypsin variant SEQ ID NO: 65 (protein)
chain: IVGGYTCAANSIPYQVSLNSGSHRCGGSLINSQWVVSAAHCYKSRIQVRLGEHNIDVLEGNEQFINAAKIITHPNFNGNTLDNDIMLIKLSSPATLNSRVATVSLPRSCAAAGTECLISGWGNTKSSGSSGPSLLQCLKAPVLSDSSCKSSYPGQITGNMICVGFLEGGKDACQGDSGGPVVCNGQLQGIVSSGYGCAQKNKPGVYTKVCNYVNWIQQTIAAN
B13: trypsin variant SEQ ID NO: 62 (protein)
chain: IVGGYTCAANSIPYQVSLNSGSHRCGGSLINSQWVVSAAHCYKSRIQVRLGEHNIDVLEGNEQFINAAKIITHPNFNGNTLDNDIMLIKLSSPATLNSRVATVSLPRSCAAAGTECLISGWGNTKSSGSSVPSLLQCLKAPVLSDSSCKSSYPGQITGNMICVGFLEGGKDACQGDSGGPVVCNGQLQGIVSSGYGCAQKNKPGVYTKVCNYVNWIQQTIAAN
B14: trypsin variant SEQ ID NO: 66 (protein)
chain: IVGGYTCAANSIPYQVSLNSGSHRCGGSLINSQWVVSAAHCYKSRIQVRLGEHNIDVLEGNEQFINAAKIITHPNFNGNTLDNDIMLIKLSSPATLNSRVATVSLPRSCAAAGTECLISGWGNTKSSGSSSPSLLQCLKAPVLSDSSCKSSYPGQITGNMICVGFLEGGKDACQGDSGGPVVCNGQLQGIVSSGYGCAQKNKPGVYTKVCNYVNWIQQTIAAN
B15: trypsin variant SEQ ID NO: 61 (protein)
chain: IVGGYTCAANSIPYQVSLNSGSHRCGGSLINSQWVVSAAHCYKSRIQVRLGEHNIDVLEGNEQFINAAKIITHPNFNGNTLDNDIMLIKLSSPATLNSRVATVSLPDSCAAAGTECLISGWGNTKSSGSSYPSLLQCLKAPVLSDSSCKSSYPGQITGNMICVGFLEGGKDACQGDSGGPVVCNGQLQGIVSSGYGCAQKNKPGVYTKVCNYVNWIQQTIAAN
B16: trypsin variant SEQ ID NO: 69 (protein)
chain: IVGGYTCAANSIPYQVSLNSGSHRCGGSLINSQWVVSAAHCYKSRIQVRLGEHNIDVLEGNEQFINAAKIITHPNFNGNTLDNDIMLIKLSSPATLNSRVATVSLPRSCAAAGTECLISGWGNTKSSGSSYPSLLQCLKAPVLSDSSCKSSYPGQITGNMICVGFLEGGKDACQGDSGGPVVCNGQLQGIVSFGYGCAQKNKPGVYTKVCNYVNWIQQTIAAN
B17: trypsin variant SEQ ID NO: 54 (protein)
chain: IVGGYTCAANSIPYQVSLNSGSHRCGGSLINSQWVVSAAHCYKSRIQVRLGEHNIAVLEGNEQFINAAKIITHPNFNGNTLDNDIMLIKLSSPATLNSRVATVSLPRSCAAAGTECLISGWGNTKSSGSSYPSLLQCLKAPVLSDSSCKSSYPGQITGNMICVGFLEGGKDACQGDSGGPVVCNGQLQGIVSSGYGCAQKNKPGVYTKVCNYVNWIQQTIAAN
B18: trypsin variant SEQ ID NO: 63 (protein)
chain: IVGGYTCAANSIPYQVSLNSGSHRCGGSLINSQWVVSAAHCYKSRIQVRLGEHNIDVLEGNEQFINAAKIITHPNFNGNTLDNDIMLIKLSSPATLNSRVATVSLPRSCAAAGTECLISGWGNTKSSGSSIPSLLQCLKAPVLSDSSCKSSYPGQITGNMICVGFLEGGKDACQGDSGGPVVCNGQLQGIVSSGYGCAQKNKPGVYTKVCNYVNWIQQTIAAN
B19: trypsin variant SEQ ID NO: 55 (protein)
chain: IVGGYTCAANSIPYQVSLNSGSHRCGGSLINSQWVVSAAHCYKSRIQVRLGEHNIWVLEGNEQFINAAKIITHPNFNGNTLDNDIMLIKLSSPATLNSRVATVSLPRSCAAAGTECLISGWGNTKSSGSSYPSLLQCLKAPVLSDSSCKSSYPGQITGNMICVGFLEGGKDACQGDSGGPVVCNGQLQGIVSSGYGCAQKNKPGVYTKVCNYVNWIQQTIAAN
B20: trypsin variant SEQ ID NO: 68 (protein)
chain: IVGGYTCAANSIPYQVSLNSGSHRCGGSLINSQWVVSAAHCYKSRIQVRLGEHNIDVLEGNEQFINAAKIITHPNFNGNTLDNDIMLIKLSSPATLNSRVATVSLPRSCAAAGTECLISGWGNTKSSGSSDPSLLQCLKAPVLSDSSCKSSYPGQITGNMICVGFLEGGKDACQGDSGGPVVCNGQLQGIVSSGYGCAQKNKPGVYTKVCNYVNWIQQTIAAN

In this data set the target is pre-pro-human insulin.
B1: the “Activity PPI cleavage” value is “yes” and the Selectivity is on record as over 90%.
B2: the “Activity PPI cleavage” value was “yes” and the Selectivity is recorded as over 90%.
Consider B3, for which the “Activity PPI cleavage” value was “yes” and the Selectivity is reported as over 90%.
On the same counts, the results for B4 are “yes” and over 70%.
As for B5, the “Activity PPI cleavage” value is recorded as “yes” and the Selectivity is reported as over 90%.
On the same counts, the results for B6 are “yes” and over 62.1%.
In the case of B7, the “Activity PPI cleavage” value is listed as “yes” and the Selectivity was over 90%.
On the same counts, the results for B8 are “yes” and over 90%.
With B9, the “Activity PPI cleavage” value was “yes” and the Selectivity is listed as over 90%.
On the same counts, the results for B10 are “yes” and over 90%.
As to B11, the “Activity PPI cleavage” value is given as “yes” and the Selectivity is over 90%.
For B12, the “Activity PPI cleavage” value was “yes” and the Selectivity was over 80%.
Consider B13, for which the “Activity PPI cleavage” value is recorded as “yes” and the Selectivity is over 90%.
With B14, the “Activity PPI cleavage” value is on record as “yes” and the Selectivity is over 90%.
On the same counts, the results for B15 are “yes” and over 80%.
Turning to B16, the “Activity PPI cleavage” value is listed as “yes” and the Selectivity is reported as over 70%.
As for B17, the “Activity PPI cleavage” value is on record as “yes” and the Selectivity is over 90%.
Consider B18, for which the “Activity PPI cleavage” value was “yes” and the Selectivity is listed as over 90%.
As for B19, the “Activity PPI cleavage” value is on record as “yes” and the Selectivity is over 90%.
On the same counts, the results for B20 are “yes” and over 70%.

The values are drawn from patent US20230303994.
